{
  "source": "paper PMC10586629",
  "about": "“Single B cell transcriptomics identifies multiple isotypes of broadly neutralizing antibodies against flaviviruses” (PLOS Pathogens, 2023)",
  "binders": {"B1": {"name": "F25.S02 IgG1 (antibody, V domains shown)", "VH": "QVQLVQSGAEVKKPGSSAKVSCKASGGTFSSYAISWVRQAPGQGLEWMGSIMPIFGTVNYAQKFQGRVTITADESTSTAYMELSRLRSEDTAVYFCARGWGGNYRSADLWIYFDLWGQGTLVTVSS", "VL": "QSALTQPRSVSGSPGQSVTISCTGTSSDVGGYKYVSWYQQHPGKAPKLMIYDVTKRPSGVPDRFSGSKSGNTASLTISGLQADDEADYYCCSYAGSYTHVVFGGGTKLTVL"}},
  "target": "T1, wild-type DENV2 16681 prM/E expressed in HEK-293T cells (Dengue virus 2, strain 16681, UniProt P29990)",
  "T1 construct": "also called WT DENV2 E protein; wild-type prM/E",
  "assay": "flow cytometry on cells",
  "settings": "one partner purified",
  "data": [
    {"binder": "B1", "values": [
      {"measurement": "binding result", "result": "binds"}
    ]}
  ]
}
